Experimental findings from the supplement of paper PMC6757056 are described below.

± gives the standard deviation of the averaged measurements.

B1: library; a variant is named by its letters at N, in order (parent)
chain: GCUGUCACCGAGAAACUGUGAAGUAUAUCUUAAACCUGGGCACUUAAAAGAUAUAUGGAGUUAGUAGUGCAACCUGCUCGGUCUGAUGAGUCCNNNNNNGGACGAAACAGC

The variants in data set [1] derive from B1. Description: normalized RNA/DNA level without ligand (relative to sTRSVctl = 100) (log10 (% of sTRSVctl)); HEK293T; ligand: cyclic di-GMP (c-di-GMP-II aptamer); higher = less ribozyme self-cleavage, higher mRNA level. To be noted: reporter: mCherry (pCS4076), ligand present: no. Summed up: (§1)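 Library plasmids encoding reporter-linked ribozyme switches (mCherry, or eGFP for some folinic acid experiments) were transfected into HEK293T at 4 µg per 6-well well. Ligand, when used, was added 1 h before transfection. Total RNA was extracted with EDTA 72 h later, then reverse-transcribed, amplified, barcoded and sequenced. RNA level was RNA reads over DNA reads, divided by a spiked-in non-cleaving control (or the top 25 sequences), ×100, log10; only sequences with ≥100 DNA reads were kept.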

The variants in data set [2] derive from B1. Description: normalized RNA/DNA level with ligand (relative to sTRSVctl = 100) (log10 (% of sTRSVctl)); HEK293T; ligand: cyclic di-GMP (c-di-GMP-II aptamer); ligand concentration (+) RNA-Seq: 1 mM; higher = less ribozyme self-cleavage, higher mRNA level. To be noted: reporter: mCherry (pCS4076), ligand present: yes. In short, it runs like this: as §1

As for UAGCGC, the “normalized RNA/DNA level without ligand (log10)” value in data set [1] turned out to be 1.76 ± 0.019. Besides, the “normalized RNA/DNA level with ligand (log10)” value in data set [2] was determined as 1.88 ± 0.036.
With UACGGG, the “normalized RNA/DNA level without ligand (log10)” value in data set [1] was found to be 1.62 ± 0.048. For the same variant, the “normalized RNA/DNA level with ligand (log10)” value in data set [2] turned out to be 1.79 ± 0.09.
In the case of UACGGC, the “normalized RNA/DNA level without ligand (log10)” value in data set [1] was 1.72 ± 0.033. For the same variant, the “normalized RNA/DNA level with ligand (log10)” value in data set [2] is 1.84 ± 0.1.
Regarding UACGGU, in data set [1], the “normalized RNA/DNA level without ligand (log10)” value came to 1.6 ± 0.032. Further, the “normalized RNA/DNA level with ligand (log10)” value in data set [2] came out at 1.78 ± 0.098.
On to AAGAUU, for which, in data set [1], the “normalized RNA/DNA level without ligand (log10)” value was determined as 1.63 ± 0.043. The “normalized RNA/DNA level with ligand (log10)” value in data set [2] is 1.8 ± 0.054.
On to AAGAUC, for which, in data set [1], the “normalized RNA/DNA level without ligand (log10)” value is 1.6 ± 0.084. Further, the “normalized RNA/DNA level with ligand (log10)” value in data set [2] was determined as 1.74 ± 0.097.
The corresponding values for AAGAUG are 1.49 ± 0.055 and 1.71 ± 0.075.
With CAGCCG, the “normalized RNA/DNA level without ligand (log10)” value in data set [1] stood at 1.847 ± 0.0028. Further, the “normalized RNA/DNA level with ligand (log10)” value in data set [2] amounted to 1.9 ± 0.074.
As to CAGCCU, the “normalized RNA/DNA level without ligand (log10)” value in data set [1] came out at 1.59 ± 0.055. Also, the “normalized RNA/DNA level with ligand (log10)” value in data set [2] was 1.79 ± 0.12.
For UACGAU, the “normalized RNA/DNA level without ligand (log10)” value in data set [1] came to 1.63 ± 0.046. Also, the “normalized RNA/DNA level with ligand (log10)” value in data set [2] amounted to 1.8 ± 0.15.
Consider GACUCA, for which the “normalized RNA/DNA level without ligand (log10)” value in data set [1] is 1.709 ± 0.011. The “normalized RNA/DNA level with ligand (log10)” value in data set [2] stood at 1.83 ± 0.11.
For GACUCC, in that order: 1.77 ± 0.0029 and 1.89 ± 0.079.
The corresponding values for GACUCU are 1.704 ± 0.005 and 1.84 ± 0.12.
With GACUCG, the “normalized RNA/DNA level without ligand (log10)” value in data set [1] was 1.78 ± 0.081. Further, the “normalized RNA/DNA level with ligand (log10)” value in data set [2] is 1.87 ± 0.074.
Regarding GAGAGG, in data set [1], the “normalized RNA/DNA level without ligand (log10)” value was 1.746 ± 0.016. Further, the “normalized RNA/DNA level with ligand (log10)” value in data set [2] turned out to be 1.82 ± 0.11.
In the case of GAGAGU, the “normalized RNA/DNA level without ligand (log10)” value in data set [1] was 1.65 ± 0.0094. For the same variant, in data set [2], the “normalized RNA/DNA level with ligand (log10)” value was 1.8 ± 0.1.
In the case of GAGAGC, the “normalized RNA/DNA level without ligand (log10)” value in data set [1] amounted to 1.71 ± 0.02. Besides, the “normalized RNA/DNA level with ligand (log10)” value in data set [2] amounted to 1.85 ± 0.12.
The corresponding values for AAGCAU are 1.655 ± 0.0071 and 1.82 ± 0.1.
The corresponding values for AAGCAG are 1.79 ± 0.081 and 1.9 ± 0.11.
With CAGACG, the “normalized RNA/DNA level without ligand (log10)” value in data set [1] came to 1.681 ± 0.013. For the same variant, the “normalized RNA/DNA level with ligand (log10)” value in data set [2] came out at 1.77 ± 0.088.
The corresponding values for CAGGAU are 1.64 ± 0.094 and 1.78 ± 0.068.
Regarding CAGGAG, the “normalized RNA/DNA level without ligand (log10)” value in data set [1] turned out to be 1.64 ± 0.091. For the same variant, in data set [2], the “normalized RNA/DNA level with ligand (log10)” value is 1.79 ± 0.098.
As to CAGGAC, the “normalized RNA/DNA level without ligand (log10)” value in data set [1] is 1.715 ± 0.017. In addition, the “normalized RNA/DNA level with ligand (log10)” value in data set [2] came out at 1.81 ± 0.1.
The corresponding values for UACUUG are 1.734 ± 0.0022 and 1.89 ± 0.063.
For UACUUA, the “normalized RNA/DNA level without ligand (log10)” value in data set [1] is 1.7 ± 0.055. For the same variant, the “normalized RNA/DNA level with ligand (log10)” value in data set [2] turned out to be 1.84 ± 0.11.
With UACUUC, the “normalized RNA/DNA level without ligand (log10)” value in data set [1] was determined as 1.763 ± 0.0059. The “normalized RNA/DNA level with ligand (log10)” value in data set [2] turned out to be 1.87 ± 0.12.
For GACGCU, in that order: 1.71 ± 0.043 and 1.81 ± 0.097.
For GACGCA, in that order: 1.77 ± 0.055 and 1.88 ± 0.085.
For GACGCG, in that order: 1.81 ± 0.055 and 1.88 ± 0.045.
In the case of GACGCC, the “normalized RNA/DNA level without ligand (log10)” value in data set [1] amounted to 1.75 ± 0.092. For the same variant, the “normalized RNA/DNA level with ligand (log10)” value in data set [2] was found to be 1.83 ± 0.11.
Turning to GAGCGG, the “normalized RNA/DNA level without ligand (log10)” value in data set [1] worked out at 1.88 ± 0.079. In data set [2], the “normalized RNA/DNA level with ligand (log10)” value came out at 1.96 ± 0.096.
In the case of GAGCGA, the “normalized RNA/DNA level without ligand (log10)” value in data set [1] was 1.735 ± 0.0089. Besides, the “normalized RNA/DNA level with ligand (log10)” value in data set [2] came out at 1.85 ± 0.085.
Turning to UAGCAA, the “normalized RNA/DNA level without ligand (log10)” value in data set [1] came to 1.716 ± 0.0099. Besides, in data set [2], the “normalized RNA/DNA level with ligand (log10)” value was 1.84 ± 0.087.
The corresponding values for UAGCAC are 1.708 ± 0.0035 and 1.83 ± 0.095.
As to UAGCAG, in data set [1], the “normalized RNA/DNA level without ligand (log10)” value was found to be 1.82 ± 0.032. Also, in data set [2], the “normalized RNA/DNA level with ligand (log10)” value was found to be 1.85 ± 0.032.
For UAGCAU, in that order: 1.653 ± 0.0034 and 1.8 ± 0.11.
For AAGGGC, in data set [1], the “normalized RNA/DNA level without ligand (log10)” value came out at 1.61 ± 0.027. Also, in data set [2], the “normalized RNA/DNA level with ligand (log10)” value stood at 1.75 ± 0.13.
On to AAGCUC, for which the “normalized RNA/DNA level without ligand (log10)” value in data set [1] was found to be 1.74 ± 0.012. Besides, in data set [2], the “normalized RNA/DNA level with ligand (log10)” value came out at 1.89 ± 0.13.
For AAGCUU, the “normalized RNA/DNA level without ligand (log10)” value in data set [1] turned out to be 1.7 ± 0.022. In addition, in data set [2], the “normalized RNA/DNA level with ligand (log10)” value was 1.84 ± 0.073.
As for AAGCUG, the “normalized RNA/DNA level without ligand (log10)” value in data set [1] was 1.64 ± 0.019. Besides, the “normalized RNA/DNA level with ligand (log10)” value in data set [2] stood at 1.79 ± 0.076.
On to AAGCUA, for which the “normalized RNA/DNA level without ligand (log10)” value in data set [1] was determined as 1.56 ± 0.024. In addition, the “normalized RNA/DNA level with ligand (log10)” value in data set [2] was determined as 1.72 ± 0.12.
Turning to AAGUAA, the “normalized RNA/DNA level without ligand (log10)” value in data set [1] is 1.45 ± 0.12. Also, in data set [2], the “normalized RNA/DNA level with ligand (log10)” value stood at 1.63 ± 0.089.
For AAGUAC, in data set [1], the “normalized RNA/DNA level without ligand (log10)” value turned out to be 1.657 ± 0.007. Also, the “normalized RNA/DNA level with ligand (log10)” value in data set [2] was 1.8 ± 0.14.
GACUAC: the “normalized RNA/DNA level without ligand (log10)” value in data set [1] is 1.7044 ± 0.00077. For the same variant, in data set [2], the “normalized RNA/DNA level with ligand (log10)” value stood at 1.82 ± 0.15.
For GACUAA, the “normalized RNA/DNA level without ligand (log10)” value in data set [1] came to 1.55 ± 0.045. The “normalized RNA/DNA level with ligand (log10)” value in data set [2] came to 1.74 ± 0.12.
For GACUAU, in that order: 1.645 ± 0.009 and 1.81 ± 0.12.
As for GACUAG, in data set [1], the “normalized RNA/DNA level without ligand (log10)” value is 1.668 ± 0.0042. For the same variant, the “normalized RNA/DNA level with ligand (log10)” value in data set [2] worked out at 1.79 ± 0.16.
With UACUAG, the “normalized RNA/DNA level without ligand (log10)” value in data set [1] turned out to be 1.697 ± 0.012. The “normalized RNA/DNA level with ligand (log10)” value in data set [2] amounted to 1.84 ± 0.09.
For the variant UACUAC, the “normalized RNA/DNA level without ligand (log10)” value in data set [1] turned out to be 1.75 ± 0.037. The “normalized RNA/DNA level with ligand (log10)” value in data set [2] was determined as 1.87 ± 0.08.
Regarding UACUAA, the “normalized RNA/DNA level without ligand (log10)” value in data set [1] was 1.71 ± 0.014. In data set [2], the “normalized RNA/DNA level with ligand (log10)” value was 1.81 ± 0.061.
AAGAGU: the “normalized RNA/DNA level without ligand (log10)” value in data set [1] came to 1.5 ± 0.035. In addition, the “normalized RNA/DNA level with ligand (log10)” value in data set [2] was 1.71 ± 0.12.
As to AAGAGC, the “normalized RNA/DNA level without ligand (log10)” value in data set [1] worked out at 1.59 ± 0.05. The “normalized RNA/DNA level with ligand (log10)” value in data set [2] amounted to 1.71 ± 0.1.
On to UAGGGG, for which the “normalized RNA/DNA level without ligand (log10)” value in data set [1] was determined as 1.563 ± 0.0094. The “normalized RNA/DNA level with ligand (log10)” value in data set [2] turned out to be 1.72 ± 0.079.
For UAGGGC, in that order: 1.64 ± 0.035 and 1.78 ± 0.1.
As for UAGGUU, the “normalized RNA/DNA level without ligand (log10)” value in data set [1] came out at 1.67 ± 0.051. Further, the “normalized RNA/DNA level with ligand (log10)” value in data set [2] came out at 1.82 ± 0.11.
On to UAGGUA, for which the “normalized RNA/DNA level without ligand (log10)” value in data set [1] was determined as 1.55 ± 0.018. The “normalized RNA/DNA level with ligand (log10)” value in data set [2] is 1.72 ± 0.05.
Consider UAGGUG, for which the “normalized RNA/DNA level without ligand (log10)” value in data set [1] is 1.58 ± 0.068. Besides, the “normalized RNA/DNA level with ligand (log10)” value in data set [2] is 1.77 ± 0.093.
As to UAGGUC, the “normalized RNA/DNA level without ligand (log10)” value in data set [1] is 1.64 ± 0.032. For the same variant, in data set [2], the “normalized RNA/DNA level with ligand (log10)” value came out at 1.81 ± 0.12.
